This note sets out measurements from patent US20100291189A1 (RIKEN, published 2010).

This series deals with the molecule itself. The series is described as follows: SDS-PAGE/CBB staining of sucrose gradient liposome fractions; self-association (homo-tetramer).

B1: E. coli-derived water channel (AQPZ), full-length, with N-terminal native His tag and TEV protease recognition site, cell-free synthesized (other)
chain: MKDHLIHNVHKEEHAHAHNKDYDIPTTENLYFQGSSGSSGMFRKLAAECFGTFWLVFGGCGSAVLAAGFPELGIGFAGVALAFGLTVLTMAFAVGHISGGHFNPAVTIGLWAGGRFPAKEVVGYVIAQVVGGIVAAALLYLIASGKTGFDAAASGFASNGYGEHSPGGYSMLSALVVELVLSAGFLLVIHGATDKFAPAGFAPIAIGLALTLIHLISIPVTNTSVNPARSTAVAIFQGGWALEQLWFFWVVPIVGGIIGGLIYRTLLEKRD
notes: No cleavage of the tag by TEV is reported before the gels; Purified in DDM for Blue-Native PAGE, and in a phosphatidylcholine liposome fraction for SDS-PAGE; also called cell-free synthesized AQPZ
On to B1, for which the binding result is listed as “binds”.
